Patent US20150037348A1 (AbbVie / Abbott, published 2015)

Legend:
Test in all cases: competition ELISA: soluble cytokine against J695 (100 ng/ml) binding to immobilized human IL-12
human IL-6 = human IL-6 (human, UniProt P05231 30-212)
Experimental: (§1) The plates were washed 4 times and incubated for 1 h at room temperature with 100 μl mouse anti-human lambda-HRP (1:500 in PBS-T/BSA, Southern Biotech. Ass. Inc., Birmingham, Ala.). The plates were washed 4 times and developed with ABTS (Kirkegaard & Perry Lab, Gaithersburg, Md.) for 20-30 minutes in the dark. The OD₄₅₀ nm was read using a microplate reader (Molecular Devices, Menlo Park, Calif.).

human IL-2 = human IL-2 (human, UniProt P60568 21-153)
Experimental: as §1

human IL-1α = molecular target: T1, human IL-1α (human, UniProt P01583 113-271)
T1 sequence (looked up): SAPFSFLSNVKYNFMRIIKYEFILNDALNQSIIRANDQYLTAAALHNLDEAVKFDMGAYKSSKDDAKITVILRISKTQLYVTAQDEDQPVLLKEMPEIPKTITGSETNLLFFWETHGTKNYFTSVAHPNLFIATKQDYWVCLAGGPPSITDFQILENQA
Experimental: as §1

human IL-4 = molecular target: T2, human IL-4 (human, UniProt P05112 25-153)
T2 sequence (looked up): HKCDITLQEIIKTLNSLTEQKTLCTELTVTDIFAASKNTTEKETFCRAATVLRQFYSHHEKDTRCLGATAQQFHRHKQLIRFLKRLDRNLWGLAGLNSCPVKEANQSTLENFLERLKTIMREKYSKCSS
Experimental: as §1

human IL-1β = human IL-1β (human, UniProt P01584 117-269)
Experimental: as §1

human IL-17 = human IL-17 (human, UniProt Q16552 20-155, limits assumed)
Experimental: as §1

human lymphotoxin = molecular target: T3, human lymphotoxin (human, UniProt P01374 35-205, limits assumed)
T3 sequence (looked up): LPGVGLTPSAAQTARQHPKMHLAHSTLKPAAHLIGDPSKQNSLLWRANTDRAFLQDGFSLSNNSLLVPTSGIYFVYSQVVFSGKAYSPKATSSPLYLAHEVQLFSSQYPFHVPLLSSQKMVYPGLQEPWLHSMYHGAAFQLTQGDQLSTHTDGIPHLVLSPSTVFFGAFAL
Experimental: as §1

human TNFα = human TNFα (human, UniProt P01375 77-233)
Experimental: as §1

human TGF-β1 = human TGF-β1 (human, UniProt P01137 279-390)
Experimental: as §1

[1] = molecular target: T4, human soluble IL-6 receptor (human, UniProt P08887 20-358)
T4 construct: Soluble form
T4 sequence (looked up): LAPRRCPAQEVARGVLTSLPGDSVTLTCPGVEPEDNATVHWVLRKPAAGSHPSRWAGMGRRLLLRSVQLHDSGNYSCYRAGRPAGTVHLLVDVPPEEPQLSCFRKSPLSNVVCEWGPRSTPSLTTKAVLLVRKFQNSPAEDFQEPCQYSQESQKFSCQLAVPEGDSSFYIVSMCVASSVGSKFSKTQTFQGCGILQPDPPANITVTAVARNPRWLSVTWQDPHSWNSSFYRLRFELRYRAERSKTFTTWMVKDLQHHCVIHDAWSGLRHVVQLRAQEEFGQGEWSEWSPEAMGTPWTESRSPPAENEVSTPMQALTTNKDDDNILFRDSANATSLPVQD
Experimental: as §1

human IFN-gamma = molecular target: T5, human IFN-gamma (human, UniProt P01579 24-166, limits assumed)
T5 sequence (looked up): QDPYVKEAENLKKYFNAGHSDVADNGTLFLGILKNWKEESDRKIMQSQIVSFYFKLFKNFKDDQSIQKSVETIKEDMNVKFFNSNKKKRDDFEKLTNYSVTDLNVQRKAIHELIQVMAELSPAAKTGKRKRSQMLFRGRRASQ
Experimental: as §1

human IGF-I = human IGF-I (human, UniProt P05019 49-118)
Experimental: as §1

human M-CSF = molecular target: T6, human M-CSF (human, UniProt P09603 33-190, limits assumed)
T6 sequence (looked up): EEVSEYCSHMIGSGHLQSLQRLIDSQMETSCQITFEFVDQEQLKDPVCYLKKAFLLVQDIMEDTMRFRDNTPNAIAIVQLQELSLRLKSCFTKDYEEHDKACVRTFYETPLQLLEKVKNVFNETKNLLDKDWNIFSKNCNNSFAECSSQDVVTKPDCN
Experimental: as §1

human IGF-II = human IGF-II (human, UniProt P01344 25-91)
Experimental: as §1

human IL-10 = human IL-10 (human, UniProt P22301 19-178)
Experimental: as §1

human LIF = human LIF (human, UniProt P15018 23-202)
Experimental: as §1

Measured: binding result

Chain of human LIF (P15018 23-202 limits assumed): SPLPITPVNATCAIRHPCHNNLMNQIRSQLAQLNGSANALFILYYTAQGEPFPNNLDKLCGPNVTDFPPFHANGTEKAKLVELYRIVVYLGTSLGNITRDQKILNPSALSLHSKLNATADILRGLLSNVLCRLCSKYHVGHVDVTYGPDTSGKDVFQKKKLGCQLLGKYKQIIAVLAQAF
Chain of human TGF-β1 (P01137 279-390 limits assumed): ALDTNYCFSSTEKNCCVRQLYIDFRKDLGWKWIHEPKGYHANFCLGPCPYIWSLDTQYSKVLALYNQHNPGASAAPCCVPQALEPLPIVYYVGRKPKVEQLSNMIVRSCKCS
Chain of human IL-10 (P22301 19-178 limits assumed): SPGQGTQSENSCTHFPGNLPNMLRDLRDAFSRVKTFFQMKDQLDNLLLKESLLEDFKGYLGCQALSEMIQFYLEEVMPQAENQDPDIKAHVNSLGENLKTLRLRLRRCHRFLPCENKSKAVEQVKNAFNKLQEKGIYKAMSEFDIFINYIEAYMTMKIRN
Chain of human TNFα (P01375 77-233 limits assumed): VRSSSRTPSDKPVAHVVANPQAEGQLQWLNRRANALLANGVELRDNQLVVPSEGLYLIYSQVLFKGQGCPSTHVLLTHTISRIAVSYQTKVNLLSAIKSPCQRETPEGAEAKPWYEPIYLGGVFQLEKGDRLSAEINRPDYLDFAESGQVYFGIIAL
Chain of human IL-2 (P60568 21-153 limits assumed): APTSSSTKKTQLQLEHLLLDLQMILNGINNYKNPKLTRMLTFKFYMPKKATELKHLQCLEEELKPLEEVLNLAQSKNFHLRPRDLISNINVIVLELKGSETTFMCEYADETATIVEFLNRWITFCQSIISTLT
Chain of human IL-17 (Q16552 20-155 limits assumed): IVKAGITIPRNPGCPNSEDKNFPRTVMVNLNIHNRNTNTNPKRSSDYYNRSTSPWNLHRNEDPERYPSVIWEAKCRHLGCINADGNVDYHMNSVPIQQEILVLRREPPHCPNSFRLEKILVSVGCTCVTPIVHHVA
Chain of human IL-6 (P05231 30-212 limits assumed): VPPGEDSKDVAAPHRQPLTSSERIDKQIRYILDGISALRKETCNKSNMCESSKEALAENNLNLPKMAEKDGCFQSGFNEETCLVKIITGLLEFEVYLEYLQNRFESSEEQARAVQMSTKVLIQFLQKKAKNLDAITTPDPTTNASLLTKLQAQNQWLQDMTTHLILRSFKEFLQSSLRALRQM

B1: J695 (antibody, V domains shown)
VH: QVQLVESGGGVVQPGRSLRLSCAASGFTFSSYGMHWVRQAPGKGLEWVAFIRYDGSNKYYADSVKGRFTISRDNSKNTLYLQMNSLRAEDTAVYYCKTHGSHDNWGQGTMVTVSS
VL: QSVLTQPPSVSGAPGQRVTISCSGSRSNIGSNTVKWYQQLPGTAPKLLIYYNDQRPSGVPDRFSGSKSGTSASLAITGLQAEDEADYYCQSYDRYTHPALLFGTGTKVTVLG
notes: Human IgG1 with lambda light chain (detected with anti-human lambda); Made in CHO or COS cells
no binding (tested: 2 nM): all assays above
